Source: IntAct's records for PubMed 15975580

Molecular target: zo2_human TJP2 (UniProt Q9UDY2)
Sequence (Q9UDY2 whole entry): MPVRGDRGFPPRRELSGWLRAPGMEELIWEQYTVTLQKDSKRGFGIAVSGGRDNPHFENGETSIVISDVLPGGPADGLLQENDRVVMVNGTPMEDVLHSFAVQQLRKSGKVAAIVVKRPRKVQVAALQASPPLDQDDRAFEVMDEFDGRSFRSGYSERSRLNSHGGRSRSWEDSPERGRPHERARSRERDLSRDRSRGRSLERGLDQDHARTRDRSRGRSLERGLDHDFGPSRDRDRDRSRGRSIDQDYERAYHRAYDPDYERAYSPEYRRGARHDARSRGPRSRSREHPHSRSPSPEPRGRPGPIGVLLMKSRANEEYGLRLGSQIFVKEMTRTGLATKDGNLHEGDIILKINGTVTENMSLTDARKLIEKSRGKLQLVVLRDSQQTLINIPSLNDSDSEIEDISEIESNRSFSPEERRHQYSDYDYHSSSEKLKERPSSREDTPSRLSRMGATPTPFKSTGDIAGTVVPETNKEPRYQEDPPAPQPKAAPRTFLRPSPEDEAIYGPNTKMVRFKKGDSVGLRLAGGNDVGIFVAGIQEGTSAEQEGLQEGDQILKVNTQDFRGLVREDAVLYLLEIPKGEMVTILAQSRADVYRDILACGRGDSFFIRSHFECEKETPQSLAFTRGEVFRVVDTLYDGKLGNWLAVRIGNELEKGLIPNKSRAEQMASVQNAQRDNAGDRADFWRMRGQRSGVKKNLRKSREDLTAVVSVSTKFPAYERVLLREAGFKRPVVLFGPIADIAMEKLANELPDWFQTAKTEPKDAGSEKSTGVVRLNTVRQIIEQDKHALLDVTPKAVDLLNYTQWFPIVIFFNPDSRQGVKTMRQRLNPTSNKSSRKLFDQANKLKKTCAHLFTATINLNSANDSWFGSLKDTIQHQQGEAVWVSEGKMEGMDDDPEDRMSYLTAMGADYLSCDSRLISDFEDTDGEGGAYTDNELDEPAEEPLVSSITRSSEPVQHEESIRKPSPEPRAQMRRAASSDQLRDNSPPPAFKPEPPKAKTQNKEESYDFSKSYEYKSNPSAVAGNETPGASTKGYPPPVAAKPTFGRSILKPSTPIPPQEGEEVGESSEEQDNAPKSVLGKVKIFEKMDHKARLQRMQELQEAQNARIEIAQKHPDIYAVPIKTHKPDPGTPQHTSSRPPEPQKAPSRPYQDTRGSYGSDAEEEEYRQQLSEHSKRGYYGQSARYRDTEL

Sequence of Protein scribble homolog (Homo sapiens), Q14160-1 P305L (Q14160 other isoform, or with tags, fused parts or gaps P305L): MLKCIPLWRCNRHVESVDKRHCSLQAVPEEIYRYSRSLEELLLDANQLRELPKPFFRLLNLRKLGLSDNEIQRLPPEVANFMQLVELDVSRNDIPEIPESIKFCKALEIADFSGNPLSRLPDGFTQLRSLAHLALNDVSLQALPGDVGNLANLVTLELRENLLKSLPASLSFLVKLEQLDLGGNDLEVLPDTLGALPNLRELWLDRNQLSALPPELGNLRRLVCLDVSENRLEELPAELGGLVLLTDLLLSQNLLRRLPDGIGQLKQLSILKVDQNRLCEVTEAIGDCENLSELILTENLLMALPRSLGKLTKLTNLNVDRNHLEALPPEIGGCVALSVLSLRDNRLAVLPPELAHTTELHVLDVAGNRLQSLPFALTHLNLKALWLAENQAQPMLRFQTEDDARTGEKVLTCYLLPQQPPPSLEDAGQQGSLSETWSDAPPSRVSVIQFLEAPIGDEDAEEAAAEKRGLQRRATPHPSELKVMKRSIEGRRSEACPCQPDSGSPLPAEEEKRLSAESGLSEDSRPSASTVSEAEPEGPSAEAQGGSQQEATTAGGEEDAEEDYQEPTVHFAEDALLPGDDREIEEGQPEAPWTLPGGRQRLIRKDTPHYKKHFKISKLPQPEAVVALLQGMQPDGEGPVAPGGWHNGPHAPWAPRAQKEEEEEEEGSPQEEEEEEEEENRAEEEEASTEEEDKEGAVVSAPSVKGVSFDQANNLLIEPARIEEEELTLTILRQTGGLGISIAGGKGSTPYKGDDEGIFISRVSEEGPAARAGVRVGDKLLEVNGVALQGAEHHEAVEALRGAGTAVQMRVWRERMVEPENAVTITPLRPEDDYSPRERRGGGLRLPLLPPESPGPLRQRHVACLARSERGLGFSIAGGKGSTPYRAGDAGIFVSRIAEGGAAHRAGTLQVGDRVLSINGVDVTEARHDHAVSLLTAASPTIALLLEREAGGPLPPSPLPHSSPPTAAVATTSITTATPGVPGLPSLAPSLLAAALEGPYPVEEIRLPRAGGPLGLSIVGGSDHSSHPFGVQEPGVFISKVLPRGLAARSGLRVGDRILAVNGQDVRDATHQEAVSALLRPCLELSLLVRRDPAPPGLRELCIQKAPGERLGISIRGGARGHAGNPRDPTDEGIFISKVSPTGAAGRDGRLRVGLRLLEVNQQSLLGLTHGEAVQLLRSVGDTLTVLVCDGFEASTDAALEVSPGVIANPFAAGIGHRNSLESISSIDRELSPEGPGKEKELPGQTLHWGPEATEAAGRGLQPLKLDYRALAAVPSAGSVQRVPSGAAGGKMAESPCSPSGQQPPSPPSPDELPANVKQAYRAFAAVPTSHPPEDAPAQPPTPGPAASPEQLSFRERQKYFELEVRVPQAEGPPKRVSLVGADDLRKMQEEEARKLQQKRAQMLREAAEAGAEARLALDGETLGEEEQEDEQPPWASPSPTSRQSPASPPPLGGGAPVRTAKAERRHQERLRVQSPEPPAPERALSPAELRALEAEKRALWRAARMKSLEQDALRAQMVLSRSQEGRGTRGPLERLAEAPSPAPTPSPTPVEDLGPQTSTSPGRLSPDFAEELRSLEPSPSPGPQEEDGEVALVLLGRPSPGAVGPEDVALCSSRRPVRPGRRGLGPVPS

effect of a mutation on the interaction: decreasing interaction
Substance: Protein scribble homolog (Homo sapiens), Q14160-1 P305L
